Data on one molecule can be found in article PMC8643667, “TRF2 promotes dynamic and stepwise looping of POT1 bound telomeric overhang”.

The data set has as its target T1, POT1 (human, UniProt Q9NUX5 1-634).
T1 sequence: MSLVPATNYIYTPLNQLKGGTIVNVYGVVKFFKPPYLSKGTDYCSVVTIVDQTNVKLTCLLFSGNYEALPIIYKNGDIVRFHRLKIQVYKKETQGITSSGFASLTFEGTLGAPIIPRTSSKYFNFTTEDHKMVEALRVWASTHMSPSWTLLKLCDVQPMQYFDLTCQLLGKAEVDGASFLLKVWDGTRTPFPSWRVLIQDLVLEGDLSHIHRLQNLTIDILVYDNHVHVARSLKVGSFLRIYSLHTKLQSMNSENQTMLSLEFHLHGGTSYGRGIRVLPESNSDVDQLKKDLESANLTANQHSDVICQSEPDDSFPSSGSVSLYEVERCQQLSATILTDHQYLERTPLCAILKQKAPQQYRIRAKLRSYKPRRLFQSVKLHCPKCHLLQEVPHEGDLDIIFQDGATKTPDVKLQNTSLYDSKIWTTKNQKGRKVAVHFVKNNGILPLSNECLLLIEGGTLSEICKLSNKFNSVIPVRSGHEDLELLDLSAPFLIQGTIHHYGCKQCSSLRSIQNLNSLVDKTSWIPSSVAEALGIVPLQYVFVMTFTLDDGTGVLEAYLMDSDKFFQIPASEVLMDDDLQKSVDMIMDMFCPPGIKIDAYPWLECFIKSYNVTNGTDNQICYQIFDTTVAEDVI
Briefly: smFRET; FRET to 0.45; 10 mM Tris-HCl pH 7.5, 100 mM NaCl, 10% glycerol, oxygen scavenging system (trolox, glucose, glucose oxidase, catalase), ~23 C. The following applies: protein: recombinant; label: 3'Cy3 strand 1; Cy5 and 3'biotin strand 2; 3' overhang 24 nt; 18 bp duplex.

B1: T6(TTAGGG)2T6 overhang (mixed)
DNA 1: TGGCGACGGCAGCGAGGCTTTTTTTTAGGGTTAGGGTTTTTT
DNA 2: GCCTCGCTGCCGTCGCCA
Take B1: the binding result is given as “binds”.
